Laboratory results as given in IntAct's records for PubMed 12732728.

B1: RNA polymerase II subunit A C-terminal domain phosphatase (Homo sapiens), Q9Y5B0 (parent)
chain: MEVPAAGRVPAEGAPTAAVAEVRCPGPAPLRLLEWRVAAGAAVRIGSVLAVFEAAASAQSSGASQSRVASGGCVRPARPERRLRSERAGVVRELCAQPGQVVAPGAVLVRLEGCSHPVVMKGLCAECGQDLTQLQSKNGKQQVPLSTATVSMVHSVPELMVSSEQAEQLGREDQQRLHRNRKLVLMVDLDQTLIHTTEQHCQQMSNKGIFHFQLGRGEPMLHTRLRPHCKDFLEKIAKLYELHVFTFGSRLYAHTIAGFLDPEKKLFSHRILSRDECIDPFSKTGNLRNLFPCGDSMVCIIDDREDVWKFAPNLITVKKYVYFQGTGDMNAPPGSRESQTRKKVNHSRGTEVSEPSPPVRDPEGVTQAPGVEPSNGLEKPARELNGSEAATPRDSPRPGKPDERDIWPPAQAPTSSQELAGAPEPQGSCAQGGRVAPGQRPAQGATGTDLDFDLSSDSESSSESEGTKSSSSASDGESEGKRGRQKPKAAPEGAGALAQGSSLEPGRPAAPSLPGEAEPGAHAPDKEPELGGQEEGERDGLCGLGNGCADRKEAETESQNSELSGVTAGESLDQSMEEEEEEDTDEDDHLIYLEEILVRVHTDYYAKYDRYLNKEIEEAPDIRKIVPELKSKVLADVAIIFSGLHPTNFPIEKTREHYHATALGAKILTRLVLSPDAPDRATHLIAARAGTEKVLQAQECGHLHVVNPDWLWSCLERWDKVEEQLFPLRDDHTKAQRENSPAAFPDREGVPPTALFHPMPVLPKAQPGPEVRIYDSNTGKLIRTGARGPPAPSSSLPIRQEPSSFRAVPPPQPQMFGEELPDAQDGEQPGPSRRKRQPSMSETMPLYTLCKEDLESMDKEVDDILGEGSDDSDSEKRRPEEQEEEPQPRKPGTRRERTLGAPASSERSAAGGRGPRGHKRKLNEEDAASESSRESSNEDEGSSSEADEMAKALEAELNDLM

Variants of: B1
Details: with t2fa_human GTF2F1, P35269
Sequence of t2fa_human GTF2F1, P35269 (P35269 whole entry): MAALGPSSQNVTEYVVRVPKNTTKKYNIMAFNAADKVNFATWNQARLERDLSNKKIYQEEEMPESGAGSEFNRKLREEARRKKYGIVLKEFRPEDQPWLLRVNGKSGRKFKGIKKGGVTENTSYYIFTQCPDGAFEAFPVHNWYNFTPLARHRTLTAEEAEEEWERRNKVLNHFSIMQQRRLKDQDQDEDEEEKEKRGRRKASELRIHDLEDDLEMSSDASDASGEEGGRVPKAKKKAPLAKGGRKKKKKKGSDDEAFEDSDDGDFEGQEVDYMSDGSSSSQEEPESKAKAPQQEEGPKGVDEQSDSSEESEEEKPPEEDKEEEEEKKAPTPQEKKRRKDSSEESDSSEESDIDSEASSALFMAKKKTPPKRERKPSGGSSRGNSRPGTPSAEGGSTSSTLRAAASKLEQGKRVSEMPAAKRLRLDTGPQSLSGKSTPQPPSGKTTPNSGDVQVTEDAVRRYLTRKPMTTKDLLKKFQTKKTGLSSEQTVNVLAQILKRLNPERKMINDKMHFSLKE

| Variant | effect of a mutation on the interaction |
| --- | --- |
| E956A;L957A | decreasing interaction |
